In article PMC4263503 (Cell, 2014):
Where two headings read alike, the source gives them in different places.

Key:
[1] = target: T1, Human Tau, hTau40 (isoform F, the longest isoform of Tau) (human, UniProt P10636-8 1-441); test: other fluorescence titration
[2] = target: T1, Human Tau, hTau40 (isoform F, the …); test: other fluorescence titration; remark: listed apart in the source

- Kd [1]: 5.2 ± 3 µM
- Kd [2]: 4.8 ± 1 µM
B1: Human Hsp90β (natural protein)
chain: not shown
